Test [1] concerns the target T1, human 5T4 on cells (human) (UniProt Q13641).
T1 sequence (looked up): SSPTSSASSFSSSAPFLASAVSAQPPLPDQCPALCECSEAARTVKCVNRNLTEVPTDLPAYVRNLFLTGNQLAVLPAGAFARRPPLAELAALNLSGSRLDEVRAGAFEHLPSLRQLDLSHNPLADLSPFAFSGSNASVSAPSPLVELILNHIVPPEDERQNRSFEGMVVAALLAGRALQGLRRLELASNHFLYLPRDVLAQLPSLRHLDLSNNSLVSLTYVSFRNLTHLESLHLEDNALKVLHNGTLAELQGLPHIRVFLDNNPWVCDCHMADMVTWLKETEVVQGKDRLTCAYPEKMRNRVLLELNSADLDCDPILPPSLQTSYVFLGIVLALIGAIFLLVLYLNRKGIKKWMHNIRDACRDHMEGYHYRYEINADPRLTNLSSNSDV
Kind of test: FACS, NCI-H226 cells. For orientation: A flow cytometer gives signals particle by particle.

Test [2] concerns the target T2, h5T4-His (cat #19845-H08H, Sino Biological) (human) (UniProt Q13641).
T2 sequence (looked up): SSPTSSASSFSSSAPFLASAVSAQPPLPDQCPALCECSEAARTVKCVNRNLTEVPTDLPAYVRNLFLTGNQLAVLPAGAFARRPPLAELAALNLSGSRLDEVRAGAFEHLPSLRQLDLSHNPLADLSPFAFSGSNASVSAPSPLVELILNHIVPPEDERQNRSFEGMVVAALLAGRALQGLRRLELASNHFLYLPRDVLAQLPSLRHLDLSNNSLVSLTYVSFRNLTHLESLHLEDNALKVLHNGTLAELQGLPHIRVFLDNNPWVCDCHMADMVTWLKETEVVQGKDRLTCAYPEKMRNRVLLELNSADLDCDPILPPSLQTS
Nature of the test: ELISA, coated h5T4-His. (In general: In an ELISA, binding on a coated surface is turned into a signal by an enzyme label.)

The target in test [3] is T1, human 5T4 on cells (human). Kind of test: FACS, CHO cells over expressing human 5T4.
Test [4] has as its target T1, human 5T4 on cells (human). Kind of test: FACS on NCI-H226 cells (endogenous 5T4).
For test [5], the target named is T1, human 5T4 on cells (human). Kind of test: FACS on CHO cells over expressing 5T4.
For test [6], the target named is T1, human 5T4 on cells (human). Nature of the test: cell-based or functional assay.

B1: CD3X5T4_cl-16XNKG2A (protein, part only; not given: anti-CD3 Fab, anti-NKG2A scFv, linkers, not shown: another chain or arm of the molecule; small tags and cut ends)
VH: AVQLQQSGPVRVKPGASVKMSCKASGYPFTDYYMNWVKQSHGRSLDWIGVFNPYNGDTRYTQKFKDKATLTIDKSSSTAYMELNSLTSEDSAVYYCARLRLLYDTSEYYVMDYWGQGTSVTVSS
VL: ENVLTQSPAIMSASPGEKVTMTCSASSSVNYMHWYQQKSNTSPKLWIYDTSKLASGVPGRFSGSGSGNSYSLTISSMEAEDVATYFCFQGSGYPYTFGGGTKLEIK
As to B1, the concentration for a half-maximal effect (EC50 (read off the curve)) in test [1] came to 6 nM; in test [2] it was 40 nM; in test [3] it was 3 nM.

B2: IM-1178 Tribody (CD3x5T4_IM24xNKG2D) (protein, part only; not given: anti-CD3 Fab, anti-NKG2D scFv, linkers, not shown: another chain or arm of the molecule; small tags and cut ends)
VH: QVQLVQSGAEVKKPGASVKLTCTASGYTFTAYYMHWMRQAPGQGLEWMGIVLPGRGSTNYAQKFQGRVTVTRDTSTNTVYMELNSLTSEDTAVYYCVRGYRDFDYWGPGTLVTVSS
VL: ELVLTQSPATLSLSPGERATLSCKASQNVGTAVAWYQQKPGQAPRLLIYSASNRYTGIPARFSGSGSGTDFTLTVSSLEPEDFAVYYCQQYTSYPRTFGQGTKVEIK
Turning to B2, the half-maximal effective concentration (EC50) is 1.24 nM in test [4] and 1.4 nM in test [5].

B3: IM-1222 Tribody (5T4_IM53-CD3-NKG2A) (protein, part only; not given: anti-CD3 Fab, anti-NKG2A scFv, linkers, not shown: another chain or arm of the molecule; small tags and cut ends)
VH: QVQLVQSGAEVKKPGASVKVSCKASGYTFTDYYMNWVRQAPGRGLEWMGVFNPYNGDTRYTQKFKDRVTMTIDKSISTAYMELSRLRSDDTAVYYCARLRLLYDTSEYYVMDYWGQGTTVTVSS
VL: ENVLTQSPATLSLSPGERATLSCSASSSVNYMHWYQQKPGQSPRLLIYDTSKLASGIPARFSGSGSGTDYTLTISSLEPEDFAVYFCFQGSGYPYTFGGGTKVEIK
With B3, in test [6], the T cells mediated cytotoxicity (lactate dehydrogenase assay), EC50 came to 0.02 nM. In addition, the EC50 in test [4] was 3.9 nM; in test [5], 2.3 nM.

B4: CD3x5T4-IM34xNKG2A (protein, part only; not given: anti-CD3 Fab, anti-NKG2A scFv, linkers, not shown: another chain or arm of the molecule; small tags and cut ends)
VH: AVQLVQSGAEVKKPGASVKVSCKASGYTFTDYYMNWVRQAPGQGLEWMGVFNPYNGDTRYTQKFKDKVTMTIDKSTSTVYMELNSLRSEDTAVYYCARLRLLYDTSEYYVMDYWGQGTTVTVSS
VL: ENVLTQSPATLSLSPGERATLSCSASSSVNYMHWYQQKPGQAPRLLIYDTSKLASGIPARFSGSGSGNDFTLTISSLEPEDFAVYYCFQGSGYPYTFGGGTKVEIK
Molecule B4 yielded an EC50 (read off the curve) in test [3] of 6 nM.

B5: CD3x5T4-IM49xNKG2A (protein, part only; not given: anti-CD3 Fab, anti-NKG2A scFv, linkers, not shown: another chain or arm of the molecule; small tags and cut ends)
VH: QVQLVQSGAEVKKPGASVKVSCKASGYTFTDYYMNWVRQAPGRGLEWIGVFNPYNGDTRYTQKFKDRATLTIDKSISTAYMELSRLRSDDTAVYYCARLRLLYDTSEYYVMDYWGQGTTVTVS
VL: ENVLTQSPATLSLSPGERATLSCSASSSVNYMHWYQQKPGQAPRLLIYDTSKLASGIPARFSGSGSGTDYTLTISSLEPEDFAVYYCFQGSGYPYTFGGGTKVEIK
In test [3], B5 returned an EC50 (read off the curve) of 5 nM.

B6: CD3x5T4-IM51xNKG2A (protein, part only; not given: anti-CD3 Fab, anti-NKG2A scFv, linkers, not shown: another chain or arm of the molecule; small tags and cut ends)
VH: QVQLVQSGAEVKKPGASVKVSCKASGYTFTDYYMNWVRQAPGQGLEWMGVFNPYNGDTRYTQKFKDRVTMTRDTSISTAYMELSRLRSDDTAVYYCARLRLLYDTSEYYVMDYWGQGTTVTVSS
VL: ENVLTQSPATLSLSPGERATLSCSASSSVNYMHWYQQKPGQSPRLLIYDTSKLASGIPARFSGSGSGTDYTLTISSLEPEDFAVYFCFQGSGYPYTFGGGTKVEIK
For B6, in test [3], the EC50 (read off the curve) came out at 5 nM.

B7: CD3x5T4-IM50xNKG2A (protein, part only; not given: anti-CD3 Fab, anti-NKG2A scFv, linkers, not shown: another chain or arm of the molecule; small tags and cut ends)
VH: QVQLVQSGAEVKKPGASVKVSCKASGYPFTDYYMNWVRQAPGRGLEWIGVFNPYNGDTRYTQKFKDKATLTIDKSISTAYMELNRLRSDDTAVYYCARLRLLYDTSEYYVMDYWGQGTTVTVSS
VL: ENVLTQSPATLSLSPGERATLSCSASSSVNYMHWYQQKPGQAPRLLIYDTSKLASGIPARFSGSGSGTDYTLTISSLEPEDFAVYYCFQGSGYPYTFGGGTKVEIK
The molecule B7 had a half-maximal effective concentration (EC50 (read off the curve)) in test [3] of 5 nM.

What is called EC50 (read off the curve) is the concentration at which the effect is half-maximal. Read a low EC50 (read off the curve) as greater potency. As usually defined, the EC50 is the midpoint of the concentration-response curve. A low value points to a more potent agent.

The record behind these values is patent US20240228658A1.
